Results: patent US20260274955A1 (JANUX THERAPEUTICS, published 2026)

Experiments:
[1] = biological target: T1, anti-CD28 Fab (SEQ ID NOs: 202, 203); test: phage binding ELISA; biotinylated Fab on neutravidin plate;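 note: clonal phage supernatants added to Fab wells pretreated with CD28 antigen or with blocking buffer only, bound phage read out via HRP-linked anti-M13 antibody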
T1 construct: biotinylated and captured on neutravidin coated plates in the phage ELISA
Method: (§1) Clonal phage were harvested as crude supernatants and screened via standard ELISAs. […] Prior to the addition of clonal phage, wells were incubated with blocking buffer and CD28 antigen or blocking buffer alone. Without washing or aspirating, clonal phage supernatants were then added to the wells and incubated for a short time. Wells were then washed followed by detection of bound phage using a horse radish conjugated anti-M13 antibody.

[2] = biological target: T1, anti-CD28 Fab (SEQ ID NOs: 202, 203); test: phage binding ELISA; Fab wells pre-incubated with CD28 antigen (competitor);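 note: clonal phage supernatants added to wells preincubated with CD28 antigen in blocking buffer versus blocking buffer alone, washed, bound phage read by HRP-conjugated anti-M13 antibody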
Method: as §1

T1 sequence (VH, as listed by the source, chain 1 of 2): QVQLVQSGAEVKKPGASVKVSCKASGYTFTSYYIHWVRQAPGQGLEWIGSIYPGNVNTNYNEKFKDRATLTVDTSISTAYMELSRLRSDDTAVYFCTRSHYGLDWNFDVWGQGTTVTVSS
T1 sequence (VL, as listed by the source, chain 2 of 2): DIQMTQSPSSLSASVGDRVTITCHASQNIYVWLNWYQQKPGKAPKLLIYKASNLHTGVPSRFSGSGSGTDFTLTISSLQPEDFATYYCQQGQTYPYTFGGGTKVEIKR

B1: Phage-340 (peptide)
peptide: YCAGHSSEYMWKCL
Anti-CD28 Fab (SEQ ID NOs: 202, 203) signal [1]: 1.85
Anti-CD28 Fab signal in the presence of CD28 [2]: 0.07

B2: Phage-384 (peptide)
peptide: YCEGHSPQYVQKCL
Anti-CD28 Fab (SEQ ID NOs: 202, 203) signal [1]: 1.77
Anti-CD28 Fab signal in the presence of CD28 [2]: 0.06

B3: Phage-380 (peptide)
peptide: YCDGHSAEYITKCL
Anti-CD28 Fab (SEQ ID NOs: 202, 203) signal [1]: 1.77
Anti-CD28 Fab signal in the presence of CD28 [2]: 0.06

B4: Phage-379 (peptide)
peptide: YCAGHVPEYMAKCL
Anti-CD28 Fab (SEQ ID NOs: 202, 203) signal [1]: 1.78
Anti-CD28 Fab signal in the presence of CD28 [2]: 0.07

B5: Phage-383 (peptide)
peptide: YCDGHSSEYIAKCL
Anti-CD28 Fab (SEQ ID NOs: 202, 203) signal [1]: 1.77
Anti-CD28 Fab signal in the presence of CD28 [2]: 0.07

B6: Phage-374 (peptide)
peptide: YCDGHSPEYIAKCL
Anti-CD28 Fab (SEQ ID NOs: 202, 203) signal [1]: 1.79
Anti-CD28 Fab signal in the presence of CD28 [2]: 0.23

B7: Phage-343 (peptide)
peptide: YCDGHSLQYLGKCL
Anti-CD28 Fab (SEQ ID NOs: 202, 203) signal [1]: 1.84
Anti-CD28 Fab signal in the presence of CD28 [2]: 0.09

B8: Phage-345 (peptide)
peptide: YCAGHLPEYLSKCL
Anti-CD28 Fab (SEQ ID NOs: 202, 203) signal [1]: 1.84
Anti-CD28 Fab signal in the presence of CD28 [2]: 0.07

B9: Phage-369 (peptide)
peptide: YCVGHAPEFMAKCL
Anti-CD28 Fab (SEQ ID NOs: 202, 203) signal [1]: 1.8
Anti-CD28 Fab signal in the presence of CD28 [2]: 0.1

B10: Phage-337 (peptide)
peptide: YCDGHLAMYMDKCL
Anti-CD28 Fab (SEQ ID NOs: 202, 203) signal [1]: 1.86
Anti-CD28 Fab signal in the presence of CD28 [2]: 0.08

B11: Phage-381 (peptide)
peptide: YCEGHLDEYMWKCL
Anti-CD28 Fab (SEQ ID NOs: 202, 203) signal [1]: 1.77
Anti-CD28 Fab signal in the presence of CD28 [2]: 0.06

B12: Phage-372 (peptide)
peptide: YCDGHLGVYMAKCL
Anti-CD28 Fab (SEQ ID NOs: 202, 203) signal [1]: 1.79
Anti-CD28 Fab signal in the presence of CD28 [2]: 0.07

B13: Phage-368 (peptide)
peptide: YCDGHTREYIDKCL
Anti-CD28 Fab (SEQ ID NOs: 202, 203) signal [1]: 1.8
Anti-CD28 Fab signal in the presence of CD28 [2]: 0.08

B14: Phage-346 (peptide)
peptide: YCEGHLQIYMSKCL
Anti-CD28 Fab (SEQ ID NOs: 202, 203) signal [1]: 1.84
Anti-CD28 Fab signal in the presence of CD28 [2]: 0.14

B15: Phage-388 (peptide)
peptide: YCEGHLPIYMSKCL
Anti-CD28 Fab (SEQ ID NOs: 202, 203) signal [1]: 1.76
Anti-CD28 Fab signal in the presence of CD28 [2]: 0.09

B16: Phage-332 (peptide)
peptide: YCEGHSWEYIGKCL
Anti-CD28 Fab (SEQ ID NOs: 202, 203) signal [1]: 1.87
Anti-CD28 Fab signal in the presence of CD28 [2]: 0.07

B17: Phage-339 (peptide)
peptide: YCEGHAAEYMSKCL
Anti-CD28 Fab (SEQ ID NOs: 202, 203) signal [1]: 1.86
Anti-CD28 Fab signal in the presence of CD28 [2]: 0.07

B18: Phage-327 (peptide)
peptide: YCEGHSLEYMAKCL
Anti-CD28 Fab (SEQ ID NOs: 202, 203) signal [1]: 1.88
Anti-CD28 Fab signal in the presence of CD28 [2]: 0.08

B19: Phage-442 (peptide)
peptide: YCAGHSPLYMLKCL
Anti-CD28 Fab (SEQ ID NOs: 202, 203) signal [1]: 1.7
Anti-CD28 Fab signal in the presence of CD28 [2]: 0.1

B20: Phage-333 (peptide)
peptide: YCDGHSALYMSKCL
Anti-CD28 Fab (SEQ ID NOs: 202, 203) signal [1]: 1.87
Anti-CD28 Fab signal in the presence of CD28 [2]: 0.08

B21: Phage-335 (peptide)
peptide: YCEGHTSEYMNKCL
Anti-CD28 Fab (SEQ ID NOs: 202, 203) signal [1]: 1.87
Anti-CD28 Fab signal in the presence of CD28 [2]: 0.06

B22: Phage-367 (peptide)
peptide: YCAGHLPMYMAKCL
Anti-CD28 Fab (SEQ ID NOs: 202, 203) signal [1]: 1.8
Anti-CD28 Fab signal in the presence of CD28 [2]: 0.08

B23: Phage-334 (peptide)
peptide: YCDGHTGVYFYKCL
Anti-CD28 Fab (SEQ ID NOs: 202, 203) signal [1]: 1.87
Anti-CD28 Fab signal in the presence of CD28 [2]: 0.08

B24: Phage-364 (peptide)
peptide: YCQGHSAEYMMKCL
Anti-CD28 Fab (SEQ ID NOs: 202, 203) signal [1]: 1.81
Anti-CD28 Fab signal in the presence of CD28 [2]: 0.07

B25: Phage-445 (peptide)
peptide: YCAGHLQEYMQKCL
Anti-CD28 Fab (SEQ ID NOs: 202, 203) signal [1]: 1.69
Anti-CD28 Fab signal in the presence of CD28 [2]: 0.07

B26: Phage-341 (peptide)
peptide: YCDGHSWAYMWKCL
Anti-CD28 Fab (SEQ ID NOs: 202, 203) signal [1]: 1.85
Anti-CD28 Fab signal in the presence of CD28 [2]: 0.13

B27: Phage-366 (peptide)
peptide: YCDGHKAEYMEKCL
Anti-CD28 Fab (SEQ ID NOs: 202, 203) signal [1]: 1.81
Anti-CD28 Fab signal in the presence of CD28 [2]: 0.09

B28: Phage-370 (peptide)
peptide: YCAGHAEQYMAKCL
Anti-CD28 Fab (SEQ ID NOs: 202, 203) signal [1]: 1.8
Anti-CD28 Fab signal in the presence of CD28 [2]: 0.08

B29: Phage-449 (peptide)
peptide: YCEGHSPWYMNKCL
Anti-CD28 Fab (SEQ ID NOs: 202, 203) signal [1]: 1.68
Anti-CD28 Fab signal in the presence of CD28 [2]: 0.06

B30: Phage-350 (peptide)
peptide: YCDGHSPAYMAKCL
Anti-CD28 Fab (SEQ ID NOs: 202, 203) signal [1]: 1.83
Anti-CD28 Fab signal in the presence of CD28 [2]: 0.1

B31: Phage-444 (peptide)
peptide: YCDGHLPVYLEKCL
Anti-CD28 Fab (SEQ ID NOs: 202, 203) signal [1]: 1.69
Anti-CD28 Fab signal in the presence of CD28 [2]: 0.06

B32: Phage-342 (peptide)
peptide: YCDGHSAAYIMKCL
Anti-CD28 Fab (SEQ ID NOs: 202, 203) signal [1]: 1.84
Anti-CD28 Fab signal in the presence of CD28 [2]: 0.09

B33: Phage-338 (peptide)
peptide: YCDGHMPEYLAKCL
Anti-CD28 Fab (SEQ ID NOs: 202, 203) signal [1]: 1.86
Anti-CD28 Fab signal in the presence of CD28 [2]: 0.07

B34: Phage-386 (peptide)
peptide: YCDGHLDEYMEKCL
Anti-CD28 Fab (SEQ ID NOs: 202, 203) signal [1]: 1.76
Anti-CD28 Fab signal in the presence of CD28 [2]: 0.08

B35: Phage-322 (peptide)
peptide: YCDGHIDEYLQKCL
Anti-CD28 Fab (SEQ ID NOs: 202, 203) signal [1]: 1.88
Anti-CD28 Fab signal in the presence of CD28 [2]: 0.06

B36: Phage-331 (peptide)
peptide: YCEGHSPLYMSKCL
Anti-CD28 Fab (SEQ ID NOs: 202, 203) signal [1]: 1.87
Anti-CD28 Fab signal in the presence of CD28 [2]: 0.09

B37: Phage-326 (peptide)
peptide: YCDGHSWEYIQKCL
Anti-CD28 Fab (SEQ ID NOs: 202, 203) signal [1]: 1.88
Anti-CD28 Fab signal in the presence of CD28 [2]: 0.07

B38: Phage-387 (peptide)
peptide: YCAGHLPEYMLKCL
Anti-CD28 Fab (SEQ ID NOs: 202, 203) signal [1]: 1.76
Anti-CD28 Fab signal in the presence of CD28 [2]: 0.09

B39: Phage-347 (peptide)
peptide: YCAGHAPEYMFKCM
Anti-CD28 Fab (SEQ ID NOs: 202, 203) signal [1]: 1.83
Anti-CD28 Fab signal in the presence of CD28 [2]: 0.06

B40: Phage-323 (peptide)
peptide: YCEGHVAEYMLKCL
Anti-CD28 Fab (SEQ ID NOs: 202, 203) signal [1]: 1.88
Anti-CD28 Fab signal in the presence of CD28 [2]: 0.05

B41: Phage-344 (peptide)
peptide: YCEGHSQEYMQKCL
Anti-CD28 Fab (SEQ ID NOs: 202, 203) signal [1]: 1.84
Anti-CD28 Fab signal in the presence of CD28 [2]: 0.05

B42: Phage-443 (peptide)
peptide: YCEGHSAEYMQKCL
Anti-CD28 Fab (SEQ ID NOs: 202, 203) signal [1]: 1.7
Anti-CD28 Fab signal in the presence of CD28 [2]: 0.29

B43: Phage-382 (peptide)
peptide: YCDGLASEYMSKCL
Anti-CD28 Fab (SEQ ID NOs: 202, 203) signal [1]: 1.77
Anti-CD28 Fab signal in the presence of CD28 [2]: 0.05

B44: Phage-324 (peptide)
peptide: YCEGHLSEYMSKCL
Anti-CD28 Fab (SEQ ID NOs: 202, 203) signal [1]: 1.88
Anti-CD28 Fab signal in the presence of CD28 [2]: 0.09

B45: Phage-373 (peptide)
peptide: YCDGHTSEYITKCL
Anti-CD28 Fab (SEQ ID NOs: 202, 203) signal [1]: 1.79
Anti-CD28 Fab signal in the presence of CD28 [2]: 0.07

B46: Phage-448 (peptide)
peptide: YCDGHAWEYMTKCL
Anti-CD28 Fab (SEQ ID NOs: 202, 203) signal [1]: 1.69
Anti-CD28 Fab signal in the presence of CD28 [2]: 0.35
